B1: TRIM9 (parent)
chain: PRNSCITCPQCHRSLILDDRGLRG

Variants of: B1
Assay: protein stability index of a GFP-peptide fusion (GPS, HEK-293T) (PSI 1-6); higher = more stable
Conditions: c terminus: a fixed tail appended
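Further: lentivirally expressed fusions sorted by FACS into six bins by GFP to DsRed ratio, PSI derived from sequencing read proportions per bin multiplied by bin number.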

In order of rising protein stability index:
1. PRNSCATCPQCHRSLILDDRGLRG [I6A]  1.48
2. PRPSCITCPQCHRSLILDDRGLRG [N3P]  1.49
3. PRGSCITCPQCHRSLILDDRGLRG [N3G]  1.52
4. PANSCITCPQCHRSLILDDRGLRG [R2A]  1.58
5. PRMSCITCPQCHRSLILDDRGLRG [N3M]  1.6
6. PRWSCITCPQCHRSLILDDRGLRG [N3W]  1.62
7. PRNKCITCPQCHRSLILDDRGLRG [S4K]  1.65
8. PRNSCFTCPQCHRSLILDDRGLRG [I6F]  1.66
9. PRNSAITCPQCHRSLILDDRGLRG [C5A]  1.67
10. GRNSCITCPQCHRSLILDDRGLRG [P1G]  1.71
11. PRNSKITCPQCHRSLILDDRGLRG [C5K]  1.71
12. PRNWCITCPQCHRSLILDDRGLRG [S4W]  1.71
13. PRNTCITCPQCHRSLILDDRGLRG [S4T]  1.73
14. PCNSCITCPQCHRSLILDDRGLRG [R2C]  1.74
15. MRNSCITCPQCHRSLILDDRGLRG [P1M]  1.76
16. PRNGCITCPQCHRSLILDDRGLRG [S4G]  1.76
17. PRNSHITCPQCHRSLILDDRGLRG [C5H]  1.77
18. PRTSCITCPQCHRSLILDDRGLRG [N3T]  1.78
19. PRCSCITCPQCHRSLILDDRGLRG [N3C]  1.8
20. PRNNCITCPQCHRSLILDDRGLRG [S4N]  1.8
21. ARNSCITCPQCHRSLILDDRGLRG [P1A]  1.82
22. QRNSCITCPQCHRSLILDDRGLRG [P1Q]  1.83
23. PRVSCITCPQCHRSLILDDRGLRG [N3V]  1.83
24. PRYSCITCPQCHRSLILDDRGLRG [N3Y]  1.85
25. PRNQCITCPQCHRSLILDDRGLRG [S4Q]  1.85
26. PRNSYITCPQCHRSLILDDRGLRG [C5Y]  1.87
27. PFNSCITCPQCHRSLILDDRGLRG [R2F]  1.89
28. PRISCITCPQCHRSLILDDRGLRG [N3I]  1.92
29. PRNSQITCPQCHRSLILDDRGLRG [C5Q]  1.92
30. PVNSCITCPQCHRSLILDDRGLRG [R2V]  1.92
31. WRNSCITCPQCHRSLILDDRGLRG [P1W]  1.94
32. PRKSCITCPQCHRSLILDDRGLRG [N3K]  1.94
33. PSNSCITCPQCHRSLILDDRGLRG [R2S]  1.94
34. PRFSCITCPQCHRSLILDDRGLRG [N3F]  1.96
35. TRNSCITCPQCHRSLILDDRGLRG [P1T]  1.97
36. PRNSNITCPQCHRSLILDDRGLRG [C5N]  1.99
37. PRNACITCPQCHRSLILDDRGLRG [S4A]  2
38. PRNSTITCPQCHRSLILDDRGLRG [C5T]  2.02
39. PRNSCETCPQCHRSLILDDRGLRG [I6E]  2.02
40. PRRSCITCPQCHRSLILDDRGLRG [N3R]  2.03
41. YRNSCITCPQCHRSLILDDRGLRG [P1Y]  2.04
42. PRNSFITCPQCHRSLILDDRGLRG [C5F]  2.08
43. PRNPCITCPQCHRSLILDDRGLRG [S4P]  2.1
44. PRNSDITCPQCHRSLILDDRGLRG [C5D]  2.11
45. PRNHCITCPQCHRSLILDDRGLRG [S4H]  2.14
46. PWNSCITCPQCHRSLILDDRGLRG [R2W]  2.14
47. PRNSCDTCPQCHRSLILDDRGLRG [I6D]  2.15
48. NRNSCITCPQCHRSLILDDRGLRG [P1N]  2.16
49. PRESCITCPQCHRSLILDDRGLRG [N3E]  2.16
50. PMNSCITCPQCHRSLILDDRGLRG [R2M]  2.16
51. PRNYCITCPQCHRSLILDDRGLRG [S4Y]  2.17
52. PKNSCITCPQCHRSLILDDRGLRG [R2K]  2.19
53. PRNECITCPQCHRSLILDDRGLRG [S4E]  2.2
54. PLNSCITCPQCHRSLILDDRGLRG [R2L]  2.24
55. PRNSCCTCPQCHRSLILDDRGLRG [I6C]  2.26
56. PRNVCITCPQCHRSLILDDRGLRG [S4V]  2.27
57. RRNSCITCPQCHRSLILDDRGLRG [P1R]  2.28
58. LRNSCITCPQCHRSLILDDRGLRG [P1L]  2.29
59. PRNSLITCPQCHRSLILDDRGLRG [C5L]  2.29
60. PRNDCITCPQCHRSLILDDRGLRG [S4D]  2.29
61. PHNSCITCPQCHRSLILDDRGLRG [R2H]  2.29
62. PRNFCITCPQCHRSLILDDRGLRG [S4F]  2.31
63. IRNSCITCPQCHRSLILDDRGLRG [P1I]  2.33
64. PRDSCITCPQCHRSLILDDRGLRG [N3D]  2.34
65. PRNSIITCPQCHRSLILDDRGLRG [C5I]  2.34
66. PDNSCITCPQCHRSLILDDRGLRG [R2D]  2.34
67. PRASCITCPQCHRSLILDDRGLRG [N3A]  2.36
68. PRNLCITCPQCHRSLILDDRGLRG [S4L]  2.37
69. DRNSCITCPQCHRSLILDDRGLRG [P1D]  2.4
70. PRNSSITCPQCHRSLILDDRGLRG [C5S]  2.42
71. PNNSCITCPQCHRSLILDDRGLRG [R2N]  2.44
72. VRNSCITCPQCHRSLILDDRGLRG [P1V]  2.46
73. HRNSCITCPQCHRSLILDDRGLRG [P1H]  2.47
74. KRNSCITCPQCHRSLILDDRGLRG [P1K]  2.48
75. PRNSPITCPQCHRSLILDDRGLRG [C5P]  2.49
76. PRSSCITCPQCHRSLILDDRGLRG [N3S]  2.5
77. PRLSCITCPQCHRSLILDDRGLRG [N3L]  2.52
78. PRNICITCPQCHRSLILDDRGLRG [S4I]  2.52
79. PQNSCITCPQCHRSLILDDRGLRG [R2Q]  2.52
80. PRHSCITCPQCHRSLILDDRGLRG [N3H]  2.53
81. PTNSCITCPQCHRSLILDDRGLRG [R2T]  2.56
82. CRNSCITCPQCHRSLILDDRGLRG [P1C]  2.61
83. SRNSCITCPQCHRSLILDDRGLRG [P1S]  2.61
84. PINSCITCPQCHRSLILDDRGLRG [R2I]  2.64
85. PRNSEITCPQCHRSLILDDRGLRG [C5E]  2.67
86. PENSCITCPQCHRSLILDDRGLRG [R2E]  2.71
87. PRNSGITCPQCHRSLILDDRGLRG [C5G]  2.75
88. PRNSVITCPQCHRSLILDDRGLRG [C5V]  2.8
89. PGNSCITCPQCHRSLILDDRGLRG [R2G]  2.82
90. PRNMCITCPQCHRSLILDDRGLRG [S4M]  2.89
91. PPNSCITCPQCHRSLILDDRGLRG [R2P]  2.92
92. PYNSCITCPQCHRSLILDDRGLRG [R2Y]  3.02
93. PRNSRITCPQCHRSLILDDRGLRG [C5R]  3.09
94. ERNSCITCPQCHRSLILDDRGLRG [P1E]  3.1
